T1: human Axl receptor on human tumor cells (human, UniProt P30530 26-894)
T1 sequence: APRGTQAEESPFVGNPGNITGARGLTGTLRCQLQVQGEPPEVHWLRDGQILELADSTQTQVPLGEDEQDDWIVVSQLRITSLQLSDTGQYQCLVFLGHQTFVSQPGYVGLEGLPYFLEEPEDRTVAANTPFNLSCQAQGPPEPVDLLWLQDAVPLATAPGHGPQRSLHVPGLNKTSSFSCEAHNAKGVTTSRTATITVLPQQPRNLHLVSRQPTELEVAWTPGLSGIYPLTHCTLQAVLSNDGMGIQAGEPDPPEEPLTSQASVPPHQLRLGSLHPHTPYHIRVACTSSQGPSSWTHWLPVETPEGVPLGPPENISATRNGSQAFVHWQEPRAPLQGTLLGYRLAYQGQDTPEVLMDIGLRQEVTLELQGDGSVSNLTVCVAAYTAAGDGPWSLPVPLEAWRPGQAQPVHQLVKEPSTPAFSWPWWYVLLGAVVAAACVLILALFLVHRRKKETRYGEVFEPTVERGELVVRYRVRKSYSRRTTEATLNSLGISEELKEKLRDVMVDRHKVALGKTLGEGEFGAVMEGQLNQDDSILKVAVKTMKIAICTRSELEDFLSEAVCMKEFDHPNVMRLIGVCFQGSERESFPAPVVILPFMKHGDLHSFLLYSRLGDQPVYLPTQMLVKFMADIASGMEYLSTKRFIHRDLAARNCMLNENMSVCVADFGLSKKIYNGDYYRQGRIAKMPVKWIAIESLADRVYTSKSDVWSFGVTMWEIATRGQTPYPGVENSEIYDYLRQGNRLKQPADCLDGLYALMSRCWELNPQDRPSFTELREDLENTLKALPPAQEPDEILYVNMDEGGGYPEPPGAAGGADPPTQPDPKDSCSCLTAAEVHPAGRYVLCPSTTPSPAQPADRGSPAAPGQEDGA

T2: monkey Axl receptor on COS7 cells (African green monkey, UniProt A0A0D9S0W1 26-894)
T2 construct: also called monkey cellular form of the Axl receptor
T2 sequence: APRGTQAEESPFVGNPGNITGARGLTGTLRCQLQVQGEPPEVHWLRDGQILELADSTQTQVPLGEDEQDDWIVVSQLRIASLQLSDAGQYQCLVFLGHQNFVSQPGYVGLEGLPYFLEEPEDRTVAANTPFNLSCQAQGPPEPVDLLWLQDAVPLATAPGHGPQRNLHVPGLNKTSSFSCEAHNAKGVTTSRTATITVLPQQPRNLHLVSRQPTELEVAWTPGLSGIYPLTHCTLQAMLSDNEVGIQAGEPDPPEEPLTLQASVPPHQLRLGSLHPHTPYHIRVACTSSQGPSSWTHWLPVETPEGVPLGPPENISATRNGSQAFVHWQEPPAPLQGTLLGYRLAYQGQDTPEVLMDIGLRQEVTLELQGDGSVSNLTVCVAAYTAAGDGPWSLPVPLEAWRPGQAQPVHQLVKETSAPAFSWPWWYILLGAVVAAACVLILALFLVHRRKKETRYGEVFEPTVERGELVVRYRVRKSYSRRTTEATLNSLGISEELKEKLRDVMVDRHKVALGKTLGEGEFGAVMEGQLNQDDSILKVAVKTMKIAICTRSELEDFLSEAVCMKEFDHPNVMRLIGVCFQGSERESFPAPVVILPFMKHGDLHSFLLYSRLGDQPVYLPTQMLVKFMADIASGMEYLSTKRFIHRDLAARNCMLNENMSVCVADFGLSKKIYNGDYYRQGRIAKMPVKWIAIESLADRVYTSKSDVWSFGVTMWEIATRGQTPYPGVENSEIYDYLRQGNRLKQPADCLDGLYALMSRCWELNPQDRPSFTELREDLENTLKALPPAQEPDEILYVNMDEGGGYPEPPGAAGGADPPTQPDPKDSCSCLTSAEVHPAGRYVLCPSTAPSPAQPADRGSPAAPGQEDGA


What was measured:
[1] = target: T1, human Axl receptor on human tumor cells; assay: cell-based or functional assay
[2] = target: T2, monkey Axl receptor on COS7 cells; assay: flow cytometry titration on COS7 cells
Method: For 110D7, respectively 1003A2 and 1024G11, cellular binding purpose, 2·10⁵ cells were incubated with an antibody concentration range prepared by ½ serial dilution (12 points) of a 10 μg/ml (6.66 10⁻⁸ M) antibody solution of 110D7, respectively 1003A2 and 1024G11, or m9G4 (mIgG1 isotype control Mab) for 20 min at 4° C. After 3 washes in phosphate-buffered saline (PBS) supplemented with 1% BSA and 0.01% NaN₃, cells were incubated with secondary antibody goat anti-mouse Alexa 488 (dilution 1/500) for 20 minutes at 4° C. After 3 additional washes in PBS supplemented with 1% BSA and 0.1% NaN₃, cells were analyzed by FACS (Facscalibur, Becton-Dickinson). At least 5000 cells were assessed to calculate the mean value of fluorescence intensity. Data are analyzed using Prism software.

Row | Binder | % remaining Axl [1] [%] | Δ (MFI No Ab 24 h - MFI Ab 24 h) [1] [MFI] | antibody concentration above which the plateau is reached [2] [pM]
1 | 110D7 anti-Axl monoclonal antibody (antibody, V domains shown, Murine monoclonal antibody purified from a hybridoma; a mIgG1 isotype control (9G4) is used beside it; also called m110D7; monoclonal antibody 110D7 derived from the hybridoma I-3959) VH: EVKLVESGGGLVQPGGSLKLSCATSGFTFSDYYMYWVRQTPEKRLEWVAYISNGGGSTYYPDTVKGRFTMSRDNAKNTLYLQMSRLKSEDTAMYYCARLSFYAMDYWGQGTSVTVSS VL: DIVMTQSHKFMSTSVGDRVSITCKASQDVTTAVAWYQQKPGQSPKLLIYWASTRHTGVPDRFTGSGSGTDYTLTISSVQAEDLALYYCQQHYRIPFTFGSGTKLEIK | 29.8 | 588 | > 1000
2 | 1024G11 anti-Axl monoclonal antibody (antibody, V domains shown, Murine monoclonal antibody purified from a hybridoma; a mIgG1 isotype control (9G4) is used beside it; also called monoclonal antibody 1024G11 derived from the hybridoma I-4501) VH: EVKLVESGGGLVQPGGSLNLSCAASGFTFSSYSMSWVRQTPEKRLEWVAFISNGGGRTYYPDTVKGRFTFSRDNARNTLYLQMSSLNSEDTAMYFCARGTTESYYAMDYWGQGTSVTVSS VL: DIVMTQSHKFMSTSVGDRVSITCKASQDVITAVAWYQQKPGQSPKLLIYWASTRHTGVPDRFTGSGSGTDYTLTISSVQAEDLALYFCQQHLSTPLTFGAGTKLELK | 45.5 | 478 | > 520
3 | 1003A2 anti-Axl monoclonal antibody (antibody, V domains shown, Murine monoclonal antibody purified from a hybridoma; a mIgG1 isotype control (9G4) is used beside it; also called monoclonal antibody 1003A2 derived from the hybridoma I-4499) VH: EVKLVESGGGLVQPGGSLKLSCAASGFTFNSYSMSWVRQTPEKRLEWVAYISNGGGRTYYPDTIKGRFTLSRDNDRNTLYLQMSSLKSEDTAMYYCARGTTESYYALDYWGQGTSVTVSS VL: DIVMTQSHKFMSTSLGDRISITCKASQDVITAVAWYQQKPGQSPKLLIYWASTRHTGVPDRFTGSGSGTDYNLTISSVQAEDLALYYCQQHFSTPLTFGAGTKLELK | 35 | 505 | > 520

From patent publication US20160046725A1 (PIERRE FABRE MEDICAMENT, published 2016)
